The values that follow come from US8026218 (UNIVERSITY OF ARIZONA, dated 2011).

To fix the notation:
B1: DmtDAlaGlyPheNleProLeuTrpNHBn-2,4-(OMe)2 (TY054) (peptide)
peptide: YAGFXPLW
modifications: not fully specified; Dmt at 1; D-Ala at 2; Nle at 5 (X); C-terminal NH-Bn-2,4-(OMe)2 amide
B2: DmtDAlaGlyPheNleProLeuTrpNHBn(CF3)2 (TY050) (peptide)
peptide: YAGFXPLW
modifications: Dmt (2',6'-dimethyl-L-tyrosine) at 1; D-Ala at 2; Nle at 5 (X); C-terminal NH-3,5-Bn(CF3)2 amide

Bridge positions count the residues as written; N and C are the ends. Square brackets hold non-standard residues; d marks the D form. Primed or numbered codes have the meaning given here. Ends that are not written are not given here. * marks the point of attachment. NHBn(CF3)2 = C-terminal amide NH-Bn(CF3)2, a benzyl group carrying two CF3; NMe‑Bn(CF3)2 = C-terminal N-methyl bis(trifluoromethyl)benzyl amide; NH(3,5-(CF3)2-benzyl) = FC(F)(F)c1cc(CN*)cc(C(F)(F)F)c1; OBzl(3,5-(CF3)2) = FC(F)(F)c1cc(CO*)cc(C(F)(F)F)c1; Glc″ = glucosyl on the serine side-chain oxygen; NH‑Bn(CF3)2 = C-terminal Bn(CF3)2 amide; NMe(benzyl) = CN(Cc1ccccc1)*; Nle = CCCC[C@H](N)C(=O)O; NHBn = c1ccc(CN*)cc1; OBn = c1ccc(CO*)cc1

T4 sequence (P14600 whole entry): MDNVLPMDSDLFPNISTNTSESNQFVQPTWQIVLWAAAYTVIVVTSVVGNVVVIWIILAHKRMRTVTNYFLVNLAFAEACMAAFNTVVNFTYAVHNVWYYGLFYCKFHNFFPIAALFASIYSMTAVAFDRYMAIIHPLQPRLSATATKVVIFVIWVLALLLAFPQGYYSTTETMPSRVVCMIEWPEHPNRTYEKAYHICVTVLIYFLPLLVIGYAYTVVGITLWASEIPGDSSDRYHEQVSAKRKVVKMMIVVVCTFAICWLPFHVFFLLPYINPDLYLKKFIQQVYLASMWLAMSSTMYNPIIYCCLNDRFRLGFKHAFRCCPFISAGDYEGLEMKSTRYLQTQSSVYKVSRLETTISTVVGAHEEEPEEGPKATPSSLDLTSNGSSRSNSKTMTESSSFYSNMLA
T3 sequence (P25103 whole entry): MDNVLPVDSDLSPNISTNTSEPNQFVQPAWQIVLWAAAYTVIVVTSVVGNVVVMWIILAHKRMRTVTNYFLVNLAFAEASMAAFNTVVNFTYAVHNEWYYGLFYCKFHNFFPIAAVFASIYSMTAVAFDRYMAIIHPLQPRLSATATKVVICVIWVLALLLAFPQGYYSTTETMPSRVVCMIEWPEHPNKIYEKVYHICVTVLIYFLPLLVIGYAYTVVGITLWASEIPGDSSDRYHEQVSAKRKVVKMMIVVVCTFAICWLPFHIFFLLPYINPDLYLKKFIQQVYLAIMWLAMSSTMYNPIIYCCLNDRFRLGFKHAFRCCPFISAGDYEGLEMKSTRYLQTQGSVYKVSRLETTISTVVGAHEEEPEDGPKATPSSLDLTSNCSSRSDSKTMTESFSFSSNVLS
T2 sequence (P41143 whole entry, stated change not applied): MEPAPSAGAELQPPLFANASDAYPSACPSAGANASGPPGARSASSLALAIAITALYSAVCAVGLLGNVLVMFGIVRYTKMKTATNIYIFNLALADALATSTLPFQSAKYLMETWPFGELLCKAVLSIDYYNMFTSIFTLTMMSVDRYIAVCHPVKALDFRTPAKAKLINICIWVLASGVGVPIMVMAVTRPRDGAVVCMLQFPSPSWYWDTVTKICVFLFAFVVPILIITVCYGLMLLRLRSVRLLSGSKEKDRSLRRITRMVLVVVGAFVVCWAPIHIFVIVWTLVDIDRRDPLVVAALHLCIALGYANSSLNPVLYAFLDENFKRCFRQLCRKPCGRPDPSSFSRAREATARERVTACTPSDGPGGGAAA

The target in the first test is T1, rat µ opioid receptor (rat, UniProt P33535 1-398). The test is described as follows: cell-based or functional assay.
T1 sequence (P33535 whole entry): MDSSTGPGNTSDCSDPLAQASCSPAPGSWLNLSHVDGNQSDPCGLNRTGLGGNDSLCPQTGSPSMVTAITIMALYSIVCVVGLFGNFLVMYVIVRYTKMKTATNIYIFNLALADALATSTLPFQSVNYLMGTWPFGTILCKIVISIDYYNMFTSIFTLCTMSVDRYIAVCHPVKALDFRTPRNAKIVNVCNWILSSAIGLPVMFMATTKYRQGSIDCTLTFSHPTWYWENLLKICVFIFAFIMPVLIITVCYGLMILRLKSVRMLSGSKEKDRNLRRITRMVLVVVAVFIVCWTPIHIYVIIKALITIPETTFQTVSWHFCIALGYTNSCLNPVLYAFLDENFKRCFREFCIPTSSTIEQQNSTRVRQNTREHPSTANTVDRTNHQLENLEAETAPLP
As to Y[dA]GFM[dP]LW-{OBzl(3,5-(CF3)2)} [TyrDAlaGlyPheMetDProLeuTrpOBn(CF3)2 (TY024)], the “GTP binding rMOR EC50” value amounted to 123 nM and the “GTP binding rMOR Emax” value is 28%.
The matching figures for Y[dA]GF[Nle]S(Glc″)LW-{NH‑Bn(CF3)2} [TyrDAlaGlyPheNleSer(OGlu)LeuTrpNHBn(CF3)2 (TY044)]: 380 nM and 85%.

A further test deals with µ opioid receptor of the guinea pig isolated ileum (guinea pig, UniProt P97266 1-98). In words: cell-based or functional assay.
µ opioid receptor of the guinea pig isolated ileum, sequence (P97266 whole entry): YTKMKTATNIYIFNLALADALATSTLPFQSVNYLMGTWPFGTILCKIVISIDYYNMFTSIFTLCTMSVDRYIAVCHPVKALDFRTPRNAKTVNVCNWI
Consider Y[dC]GF[Nle]P[dC]W-{NH(3,5-(CF3)2-benzyl)} (disulfide 2-7) [Tyr[DCysGlyPheNleProDCys]TrpNHBn(CF3)2 (TY038)], for which the “GPI/LMMP opioid(mu) agonist IC50” value is 3 % at 1 uM.
On the same count and under the same terms, as for Y[dC]GF[dC]PLW-{NH(3,5-(CF3)2-benzyl)} (disulfide 2-5) [Tyr[DCysGlyPheDCys]ProLeuTrpNHBn(CF3)2 (TY037)], the figure is 284 nM.

In the next test the target is guinea pig NK1 receptor (guinea pig, UniProt P30547 1-407). In words: cell-based or functional assay.
guinea pig NK1 receptor, sequence (P30547 whole entry): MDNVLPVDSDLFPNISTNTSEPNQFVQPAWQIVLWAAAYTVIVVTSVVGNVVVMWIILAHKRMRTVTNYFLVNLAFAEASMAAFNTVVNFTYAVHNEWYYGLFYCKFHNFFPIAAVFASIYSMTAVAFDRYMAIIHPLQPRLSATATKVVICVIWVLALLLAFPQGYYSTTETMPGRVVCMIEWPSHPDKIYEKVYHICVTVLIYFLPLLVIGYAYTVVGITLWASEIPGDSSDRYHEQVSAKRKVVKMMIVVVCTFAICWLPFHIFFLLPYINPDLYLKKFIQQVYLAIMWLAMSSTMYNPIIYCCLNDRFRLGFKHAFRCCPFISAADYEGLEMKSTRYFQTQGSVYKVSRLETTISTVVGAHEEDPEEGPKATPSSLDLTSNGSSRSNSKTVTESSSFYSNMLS
As for Y[dC]GF[Nle]P[dC]W-{NH(3,5-(CF3)2-benzyl)} (disulfide 2-7) [Tyr[DCysGlyPheNleProDCys]TrpNHBn(CF3)2 (TY038)], the “GPI/LMMP SP antagonist Ke” value was determined as 12 nM.
With Y[dC]GF[dC]PLW-{NH(3,5-(CF3)2-benzyl)} (disulfide 2-5) [Tyr[DCysGlyPheDCys]ProLeuTrpNHBn(CF3)2 (TY037)], the “GPI/LMMP SP antagonist Ke” value was found to be 4.7 nM.

The next test concerns the target T1, rat µ opioid receptor. The test is described as follows: radioligand competition vs [3H]DAMGO, membranes of rMOR cells. (In general: In a radioligand displacement assay an active substance lowers the binding of a labelled ligand.)
On to MPLW-{NHBn(CF3)2} [MetProLeuTrpNHBn(CF3)2 (TY051)], for which the affinity corresponds to a Ki of 866 nM.
On the same count and under the same terms, the value for Y[dA]GF[Nle]S(Glc″)LW-{NH‑Bn(CF3)2} [TyrDAlaGlyPheNleSer(OGlu)LeuTrpNHBn(CF3)2 (TY044)] was 3370 nM.

The next test has as its target T2, human δ opioid receptor (human, UniProt P41143 1-372).
T2 construct: whole, on cells; Used as crude membrane preparations of the transfected cells; also called hDOR; DOR
In words: radioligand competition vs [3H]DPDPE, membranes of hDOR cells.
B1 showed an inhibitory constant (Ki) of 0.15 nM.
YAGFXPLW (Dmt at 1; D-Ala at 2; Nle at 5 (X); C-terminal NH-Bn-3-(CF3) amide) [DmtDAlaGlyPheNleProLeuTrpNHBn-3-(CF3) (TY053)] came in with an inhibition constant (Ki) of 4.1 nM.
For the molecule Y[dA]GFM[dP]LW-{OBzl(3,5-(CF3)2)} [TyrDAlaGlyPheMetDProLeuTrpOBn(CF3)2 (TY024)], the Ki was 13.2 nM.
The same measure, in the same setting: as for YAGFXPLW (Dmt at 1; D-Ala at 2; Nle at 5 (X); C-terminal NMe-3,5-Bn(CF3)2 amide) [DmtDAlaGlyPheNleProLeuTrpNMeBn(CF3)2 (TY052)], the figure is 0.46 nM.

Another test addresses T3, human NK1 receptor (human, UniProt P25103 1-407).
T3 construct: whole, on cells; Used as membrane preparations of transfected CHO cells; also called hNK1; human neurokinin-1 receptor
In words: radioligand competition vs [3H]substance P, membranes of hNK1 CHO cells.
As for B1, the Ki was found to be 0.952 nM.
Y[dA]GFM-NH2 [TyrDAlaGlyPheMetNH2 (TY040)] had a Ki of 145 nM.
Same read-out and setting: the value for Y[dA]GFPLW-NHBn [TyrDAlaGlyPheProLeuTrpNHBn (TY008)] was 14 nM; that for Y[dA]GFPLW-{NMe(benzyl)} [TyrDAlaGlyPheProLeuTrpNMeBn (TY010)] was 100 nM; that for YAGFXPLW (Dmt at 1; D-Ala at 2; Nle at 5 (X); C-terminal NH-Bn-3-(CF3) amide) [DmtDAlaGlyPheNleProLeuTrpNHBn-3-(CF3) (TY053)] was 1.04 nM.
On the same count and under the same terms, the value for Y[dA]GFPLW-{OBzl(3,5-(CF3)2)} [TyrDAlaGlyPheProLeuTrpOBn(CF3)2 (TY001)] was 0.0023 nM; that for Y[dA]GFPLW-{NH(3,5-(CF3)2-benzyl)} [TyrDAlaGlyPheProLeuTrpNHBn(CF3)2 (TY012)] was 0.61 nM; that for YAGFXPLW (Dmt at 1; D-Ala at 2; Nle at 5 (X); C-terminal NMe-3,5-Bn(CF3)2 amide) [DmtDAlaGlyPheNleProLeuTrpNMeBn(CF3)2 (TY052)] was 0.21 nM.
The same measure, in the same setting: as for MPLW-{NHBn(CF3)2} [MetProLeuTrpNHBn(CF3)2 (TY051)], the figure is 0.922 nM; as for B2, 0.075 nM; as for Y[dA]GF[Nle]S(Glc″)LW-{NH‑Bn(CF3)2} [TyrDAlaGlyPheNleSer(OGlu)LeuTrpNHBn(CF3)2 (TY044)], 1.3 nM.

The next test concerns the target T4, rat NK1 receptor (rat, UniProt P14600 1-407).
T4 construct: whole, on cells; Used as membrane preparations of transfected CHO cells; also called rNK1; rat neurokinin-1 receptor
In words: radioligand competition vs [3H]substance P, membranes of rNK1 CHO cells.
On to Y[dA]GFM-NH2 [TyrDAlaGlyPheMetNH2 (TY040)], for which affinity was put at a Ki of 1100 nM.
The same measure, in the same setting: the value for Y[dA]GFPLW-NHBn [TyrDAlaGlyPheProLeuTrpNHBn (TY008)] was 803 nM; that for Y[dA]GFPLW-OBn [TyrDAlaGlyPheProLeuTrpOBn (TY011)] was 659 nM.
Still for that read-out and setting: as for Y[dA]GFPLW-{NMe(benzyl)} [TyrDAlaGlyPheProLeuTrpNMeBn (TY010)], the figure is 267 nM; as for Y[dA]GFPLW-{NMe‑Bn(CF3)2} [TyrDAlaGlyPheProLeuTrpNMeBn(CF3)2 (TY013)], 6.05 nM.
The molecule Y[dA]GFPLW-{NH(3,5-(CF3)2-benzyl)} [TyrDAlaGlyPheProLeuTrpNHBn(CF3)2 (TY012)] yielded a Ki of 32.6 nM.
The same measure, in the same setting: as for MPLW-{NHBn(CF3)2} [MetProLeuTrpNHBn(CF3)2 (TY051)], the figure is 62 nM.

The term Ki denotes the dissociation constant of the complex between target and ligand, obtained from inhibition or displacement. Higher therefore signals a looser hold on the target.
